Test results reported in patent US20140011728A1.

Target: IL-1 receptor expressed by INS-1 cells (rat (INS-1 cells are derived from a rat insulinoma)) (UniProt Q02955)

- NO release: 6.56 µM
Substance: IL-1β (ligand)
